In patent US20170015742A1 (published 2017):

Experiments:
[1] = molecular target: T1, recombinant human PDGF-BB (human, UniProt P01127 82-190); experiment: cell-based or functional assay
[2] = molecular target: T1, recombinant human PDGF-BB; experiment: competition ELISA: blocks biotin-hPDGF-BB binding to coated hPDGF-Rβ-Fc
Method: Plates were then washed four times with wash buffer (TBS, 0.05% Tween-20) and blocked with Superblock blocking buffer (Thermo Scientific, cat#37535). During the blocking step, supernatants, antibodies, benchmark compounds or DVD-Ig were diluted in assay diluent (10% Superblock containing 0.05% surfactamps) and an eight point titration of each sample molecule was performed. […] Following incubation, plates were washed four times with wash buffer. Detection reagent Streptavidin-polyHRP-40 (Fitzgerald, cat#65r-s104phrp) was diluted in assay diluent and added to plates (50 μL) for 45 minutes at 25° C. with shaking. Plates were washed four times with wash buffer and developed with the addition of Enhanced K-blue TMB substrate (Neogen, cat#308177). The reaction was stopped with 2N sulfuric acid (VWR, cat# BDH3500-1) and the absorbance was read at 450 nm-570 nm. […] Data was analyzed using Softmax Pro 4.8 software and IC₅₀ values calculated using a sigmoidal dose response (variable slope) fit in GraphPad Prism 5.

Human PDGF-BB [3] = molecular target: T2, Human PDGF-BB (human, UniProt P01127 82-190); experiment: SPR (Biacore), antibody captured via anti-human Fc, antigen in solution; footnote *: heterogeneous off-rate
T2 construct: Recombinant human PDGF-BB, a homodimer of two B chains; also called hPDGF-BB; huPDGF-BB
Method: For example, approximately 9000 RU of goat anti-human Fc specific polyclonal antibody (Thermo Fisher Scientific Inc., Rockford, Ill.) diluted in 10 mM sodium acetate (pH 4.5) is directly immobilized across a CM5 research grade biosensor chip using a standard amine coupling kit according to manufacturer's instructions and procedures at 25 μg/ml. Unreacted moieties on the biosensor surface were blocked with ethanolamine. For kinetic analysis, rate equations derived from the 1:1 Langmuir binding model were fitted simultaneously to multiple antigen injections (using global fit analysis) with the use of Scrubber 2 (BioLogic Software), Biacore Biaevaluation 4.0.1 software or Biacore T100 Evaluation software. Purified antibodies or DVD-Ig molecules were diluted in running buffer for capture across goat anti-human Fc reaction surfaces. Antibodies or DVD-Ig molecules to be captured as a ligand (1 μg/ml) were injected over reaction matrices at a flow rate of 10 μl/minute. During the assay, all measurements were referenced against the capture surface alone (i.e., with no captured antibody or DVD-Ig molecule). […] The equilibrium dissociation constant KD (M) of the reaction between antibodies and the target antigen was then calculated from the kinetic rate constants by the following formula: KD=Koff/Kₒₙ. Binding was recorded as a function of time and kinetic rate constants were calculated.

Human PDGF-BB [4] = molecular target: T2, Human PDGF-BB; experiment: SPR (Biacore), antibody captured via anti-human Fc, antigen in solution
Outline: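 Antibodies or DVD-Ig molecules (1 μg/ml) were captured on an anti-human Fc CM5 surface, with antigen injected in solution and responses referenced to the capture-only surface. Rate constants came from a global 1:1 Langmuir fit, and KD = koff/kon.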

T2 sequence (P01127 82-190 limits assumed): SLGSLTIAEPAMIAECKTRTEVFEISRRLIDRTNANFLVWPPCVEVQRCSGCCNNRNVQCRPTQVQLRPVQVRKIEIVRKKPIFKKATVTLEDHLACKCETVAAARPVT
T1 sequence (P01127 82-190 limits assumed): as above

Phospho-Tyr751/hPDGF-BB Neutralization [1] [nM]	huPDGF-BB Neutralization Potency (nM) in NIH-3T3 Cells [1] [nM]	IC50 [2] [nM]	Kd (Human PDGF-BB [3]) [nM]	kon (Human PDGF-BB [4]) [M⁻¹ s⁻¹]	Binder
1.06	> 5	> 10			BDI-1E1-D5 (antibody, IgG2b, V domains shown, Rat hybridoma monoclonal antibody) VH: EVKLQQSGDELVRPGASVKMSCKASGYTFTDYVMHWVKQSPGQGLEWIGTIIPLIDTTSYNQKFKGKATLTADKSSNTAYMELSRLTSEDSAVYYCARTSPYYYSSYDVMDAWGQGASVTVSS VL: NIQLTQSPSLLSASVGDRVTLSCKGSQNINNYLAWYQQKLGEAPKLLIYKTNNLQTGIPSRFSGCGSGTDYTLTISSLHSEDLATYYCYQYDNGYTFGAGTKLELK
			≤ 0.49	≥ 1e+07	hBDI-5H1.13 (antibody, V domains shown, Humanized IgG) VH: EVTLKESGPALVKPTQTLTLTCTFSGFSLSTFGMGVGWIRQPPGKALEWLANIWWDDDKYYNPSLKNRLTISKDTSKNQAVLTITNMDPVDTATYYCARISTGISSYYVMDAWGQGTTVTVSS VL: DFQLTQSPSSLSASVGDRVTITCERSSGDIGDTYVSWYQQKPGKAPKNVIYGNDQRPSGVPSRFSGSGSGNSATLTISSLQPEDFATYFCQSYDSDIDIVFGQGTKVEIK
1.62	> 5	3.23			BDI-6A3-A9 (antibody, IgG2b, V domains shown, Rat hybridoma monoclonal antibody) VH: EVQLVESGGGLVQPGRSLKFSCAASGFSFSDSAMAWVRQAPKKGLEWVATIIYDGSGTYYRDSVKGRFTISRDNAKSTLYLQMDSLRSEDTATYYCARLGFNYGNYGYYVMDAWGQGASVTVSS VL: QFTLTQPKSVSGSLRNTITIPCERSSGDIGDSYVSWYQQHLGRPPINVIFADDQRPSEVSDRFSGSIDSSSNSASLTITNLQMDDEADYFCQSYDSNIDINIVFGGGTKLTVL
			≤ 0.017	≥ 1e+07	hBDI-9E8.8 (antibody, V domains shown, Humanized IgG) VH: EVTLRESGPALVKPTQTLTLTCTFSGFSLSTYGMGVGWIRQPPGKGLEWLANIWWDDDKYYNPSLKNRLTISKDTSKNQAVLTITNMDPVDTATYYCARIESIGTTYSFDYWGQGTMVTVSS VL: EFVLTQSPGTLSLSPGERATLSCERSSGDIGDSYVSWYQQKPGQAPRLVIYADDQRPSGIPDRFSGSGSGTDFTLTISRLEPEDFAVYYCQSYDINIDIVFGGGTKVEIK
			≤ 0.1	≥ 1e+07	hBDI-9E8.13 (antibody, V domains shown, Humanized IgG) VH: EVTLRESGPALVKPTQTLTLTCTFSGFSLSTYGMGVGWIRQPPGKGLEWLANIWWDDDKYYNPSLKNRLTISKDTSKNQAVLTITNMDPVDTATYYCARIESIGTTYSFDYWGQGTMVTVSS VL: DFQLTQSPSSLSASVGDRVTITCERSSGDIGDSYVSWYQQKPGKAPKNVIYADDQRPSGVPSRFSGSGSGNSASLTISSLQPEDFATYYCQSYDINIDIVFGQGTKVEIK
			≤ 2.9	≥ 1e+07	hBDI-5H1.7 (antibody, V domains shown, Humanized IgG) VH: EVTLKESGPALVKPTQTLTLTCTFSGFSLSTFGMGVGWIRQPPGKALEWLANIWWDDDKYYNPSLKNRLTISKDTSKNQAVLTITNMDPVDTATYYCARISTGISSYYVMDAWGQGTTVTVSS VL: EIVLTQSPGTLSLSPGERATLSCERSSGDIGDTYVSWYQQKPGQAPRLLIYGNDQRPSGIPDRFSGSGSGTDFTLTISRLEPEDFAVYYCQSYDSDIDIVFGGGTKVEIK
			≤ 72	≥ 1e+07	hBDI-5H1.8 (antibody, V domains shown, Humanized IgG) VH: EVTLKESGPALVKPTQTLTLTCTFSGFSLSTFGMGVGWIRQPPGKALEWLANIWWDDDKYYNPSLKNRLTISKDTSKNQAVLTITNMDPVDTATYYCARISTGISSYYVMDAWGQGTTVTVSS VL: EFVLTQSPGTLSLSPGERATLSCERSSGDIGDTYVSWYQQKPGQAPRLVIYGNDQRPSGIPDRFSGSGSGTDFTLTISRLEPEDFAVYYCQSYDSDIDIVFGGGTKVEIK
0.923	0.741	1.06			BDI-5G2-F9 (antibody, IgG2b, V domains shown, Rat hybridoma monoclonal antibody) VH: QVTLKESGPGILQPSQTLSLTCTFSGFSLSTFGMGVGWIRQPSGKGLEWLANIWWDDDKYYNPSLKNRLTISKDTSNSQAFLEITNVDTADTATYYCARISTGISSYYVMDAWGQGASVTVSS VL: QFTLTQPKSVSGSLRSTITIPCERSSGDIGDTYVSWYQQHLGRPPINVIYGNDQRPSEVSDRFSGSIDSSSNSASLTITNLQMDDEADYFCQSYDSDIDIVFGGGTKLTVL
